What was measured:
[1] = molecular target: T1, Ang2 protein (R&D systems) (human, UniProt O15123 19-496); assay: cell-based or functional assay
T1 sequence: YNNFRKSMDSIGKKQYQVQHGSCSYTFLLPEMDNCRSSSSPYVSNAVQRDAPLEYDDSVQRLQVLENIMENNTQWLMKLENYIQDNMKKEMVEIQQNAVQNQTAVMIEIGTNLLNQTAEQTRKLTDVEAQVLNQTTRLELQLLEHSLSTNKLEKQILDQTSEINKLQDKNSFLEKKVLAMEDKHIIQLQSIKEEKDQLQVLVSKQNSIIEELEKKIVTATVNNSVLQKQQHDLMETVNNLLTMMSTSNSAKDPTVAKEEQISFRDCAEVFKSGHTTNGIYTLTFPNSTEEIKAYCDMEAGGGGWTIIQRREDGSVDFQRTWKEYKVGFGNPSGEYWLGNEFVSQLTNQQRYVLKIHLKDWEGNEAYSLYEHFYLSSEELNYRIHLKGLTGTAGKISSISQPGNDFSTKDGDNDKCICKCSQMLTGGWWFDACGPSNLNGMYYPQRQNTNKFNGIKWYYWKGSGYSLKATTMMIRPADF

[2] = molecular target: T2, BSA (bovine, UniProt P02769); assay: ELISA: coated BSA, 10D6 2 µg/ml with or without FLAG-Ang2, detected with anti-mouse IgG-HRP (OD450)
T2 construct: also called Bovine serum albumin; BSA (Sigma)
Method: (§1) A 96-well MaxiSorp™ flat-bottom plate (Nunc) was coated with 4 ug/ml of Tie2-Fc (R&D systems) or BSA (Sigma). Then, the plate was washed five times with 0.05% (v/v) Tween-20-containing PBS (Phosphate Buffer Saline) and blocked with 1% (v/v) BSA (Bovine serum albumin; Sigma)-containing PBS at a room temperature for 2 hours. 0.25 ug/ml of Ang2 and 2 ug/ml of antibody 10D6 were added to each well of the plate, which was allowed to react at a room temperature for 2 hours and then washed five times with PBST. After that, an anti-mouse IgG antibody (Sigma) conjugated with HRP diluted in 1% (v/v) BSA-containing PBS at a ratio of 1:5,000 (v/v) was added in an amount of 100 ul to each well to react at a room temperature for 1 hour and then, the plate was washed five times with PBST. Lastly, 100 ul (microliter) of TMB substrate (Cell Signaling) was added to each well of the plate to induce color development for 3 min. and then, the reaction was ceased by the addition of 100 ul of Stop solution (Cell Signaling) and OD450 values were measured on a plate reader (Molecular Devices).

[3] = molecular target: T3, hTie2-Fc (R&D Systems) (human, UniProt Q02763 23-745); assay: ELISA: coated Tie2-Fc, 10D6 2 µg/ml without Ang2, detected with anti-mouse IgG-HRP (OD450)
T3 construct: also called hTie-2/Fc fusion protein; not shown: Fc of human IgG1
Method: as §1, with “0.25 ug/ml of Ang2 and 2 ug/ml of antibody 10D6 were added to each well of the plate, which was allowed to react at a room temperature for 2 hours and then washed five times with PBST.” left out

[4] = molecular target: T4, recombinant hAng2 (C-His, R&D Systems) (human, UniProt O15123 19-496); assay: SPR, BIAcore T100; hAng2 (C-His) captured on anti-His antibody on a CM5 chip, antibody flowed from 100 nM in twofold dilutions
T4 construct: also called human Ang2 protein
T4 sequence: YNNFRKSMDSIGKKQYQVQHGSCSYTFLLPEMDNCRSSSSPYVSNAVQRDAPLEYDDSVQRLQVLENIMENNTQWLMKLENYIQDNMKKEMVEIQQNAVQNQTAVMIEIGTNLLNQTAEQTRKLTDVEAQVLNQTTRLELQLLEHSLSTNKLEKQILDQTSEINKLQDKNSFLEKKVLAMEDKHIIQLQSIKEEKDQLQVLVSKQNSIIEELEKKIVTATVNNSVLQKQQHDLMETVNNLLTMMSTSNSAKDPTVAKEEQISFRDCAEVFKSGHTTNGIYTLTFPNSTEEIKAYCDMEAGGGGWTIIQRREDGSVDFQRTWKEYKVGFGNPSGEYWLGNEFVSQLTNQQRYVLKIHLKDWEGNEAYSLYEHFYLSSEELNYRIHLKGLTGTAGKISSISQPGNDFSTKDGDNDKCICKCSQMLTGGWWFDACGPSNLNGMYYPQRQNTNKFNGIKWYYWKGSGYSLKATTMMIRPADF
Method: The binding affinity of the above antibody to human Ang2 protein was measured by an SPR method using a BIAcore T100 (GE Healthcare). The SPR method uses refractive index change of light which passes a sensor chip according to the state of materials coated onto the sensor chip, and if an antigen or an antibody is flowed onto a chip coated with the antigen or antibody, it causes changes in refractive index due to their binding and Kd values are thus calculated from the measured values.
First, anti-His antibody was immobilized on a CM5 sensor chip (GE healthcare) up to 8,000 RU levels using a pH 5.0 acetate solution and an amine coupling kit (GE Healthcare). 6 μg/ml of a recombinant hAng2 (C-His, R&D Systems) protein was flowed onto the chip to be captured at 100 to 200 RU levels.

T3 sequence (Q02763 23-745 limits assumed): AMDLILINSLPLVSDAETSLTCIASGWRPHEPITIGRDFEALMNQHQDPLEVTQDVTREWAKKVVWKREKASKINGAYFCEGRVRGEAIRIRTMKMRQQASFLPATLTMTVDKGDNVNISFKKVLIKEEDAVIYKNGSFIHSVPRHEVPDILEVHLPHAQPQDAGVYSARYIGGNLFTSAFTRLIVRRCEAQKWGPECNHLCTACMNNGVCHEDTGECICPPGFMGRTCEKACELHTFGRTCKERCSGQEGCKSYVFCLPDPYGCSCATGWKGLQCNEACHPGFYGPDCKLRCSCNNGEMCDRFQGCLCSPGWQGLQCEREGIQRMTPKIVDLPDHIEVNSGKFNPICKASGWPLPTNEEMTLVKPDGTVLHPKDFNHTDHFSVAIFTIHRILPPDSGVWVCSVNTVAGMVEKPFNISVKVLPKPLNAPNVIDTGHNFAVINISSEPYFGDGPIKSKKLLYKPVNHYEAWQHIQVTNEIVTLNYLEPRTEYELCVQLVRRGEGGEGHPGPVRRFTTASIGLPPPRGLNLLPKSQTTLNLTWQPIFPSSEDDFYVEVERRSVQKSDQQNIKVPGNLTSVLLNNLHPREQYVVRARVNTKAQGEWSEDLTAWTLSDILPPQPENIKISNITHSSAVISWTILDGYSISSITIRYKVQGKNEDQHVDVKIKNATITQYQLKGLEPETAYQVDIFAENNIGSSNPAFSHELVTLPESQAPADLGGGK
T2 sequence (P02769 25-607 limits assumed): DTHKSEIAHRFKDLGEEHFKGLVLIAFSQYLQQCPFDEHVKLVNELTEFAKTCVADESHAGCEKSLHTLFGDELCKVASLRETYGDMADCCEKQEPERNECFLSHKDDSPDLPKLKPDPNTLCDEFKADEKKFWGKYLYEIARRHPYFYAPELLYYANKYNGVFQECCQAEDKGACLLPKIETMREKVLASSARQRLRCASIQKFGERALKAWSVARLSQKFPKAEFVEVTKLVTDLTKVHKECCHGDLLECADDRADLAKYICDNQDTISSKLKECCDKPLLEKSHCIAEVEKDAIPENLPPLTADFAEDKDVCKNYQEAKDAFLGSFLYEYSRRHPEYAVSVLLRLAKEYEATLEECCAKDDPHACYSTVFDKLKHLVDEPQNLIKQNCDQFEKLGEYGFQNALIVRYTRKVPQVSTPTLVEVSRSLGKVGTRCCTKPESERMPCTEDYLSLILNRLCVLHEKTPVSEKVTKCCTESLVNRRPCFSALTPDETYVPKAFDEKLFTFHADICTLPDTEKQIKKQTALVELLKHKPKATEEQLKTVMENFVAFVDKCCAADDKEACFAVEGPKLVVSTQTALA

B1: SAIT-ANG2-AB-m10D6 (antibody, V domains shown)
VH: DVQLQESGPGLVKPSQSLSLTCTVTGYSITSDYAWNWIRQFPGNKLEWMGYINYSGNTDYNPSLKSRSSITRDTSKNQFFLQLNSVTTGDTATYYCARGNFEGAMDYWGQGTSVTVSS
VL: SIVMTQTPKFLLVSAGDRVTITCKASQSVSNDVAWYQQKPGQSPKLLIYYASNRYPGVPDRFTGSGYGTDFTFTISTVQAEDLAVYFCQQDYSSPWTFGGGTKLEIK
notes: also called antibody 10D6; anti-Ang2 antibody (10D6)
[1]
  Tie2 phosphorylation effect relative to control antibody RG: ~8.6 fold
  Tie2 phosphorylation level (pTyr/Tie2 ratio), HUVEC, 60 nM antibody with Ang2: 180%
[2]
  binding result: no binding (tested: 2 µg/ml)
[3]
  binding result: no binding (tested: 2 µg/ml)
[4]
  Kd: 8 nM

— patent US20150079112A1 (SAMSUNG ELECTRONICS, published 2015)
